{
  "source": "ChEMBL document CHEMBL1134791",
  "about": "“2- and 3-substituted 1,4-naphthoquinone derivatives as subversive substrates of trypanothione reductase and lipoamide dehydrogenase from Trypanosoma cruzi: synthesis and correlation between redox cycling activities and in vitro cytotoxicity” (J Med Chem, 2001)",
  "proteins": {"B1": {"name": "Trypanothione reductase (Trypanosoma cruzi), P28593 (protein)", "chain": "MMSKIFDLVVIGAGSGGLEAAWNAATLYKKRVAVIDVQMVHGPPFFSALGGTCVNVGCVPKKLMVTGAQYMEHLRESAGFGWEFDRTTLRAEWKKLIAVKDEAVLNINKSYEEMFRDTEGLEFFLGWGSLESKNVVNVRESADPASAVKERLETENILLASGSWPHMPNIPGIEHCISSNEAFYLPEPPRRVLTVGGGFISVEFAGIFNAYKPKDGQVTLCYRGEMILRGFDHTLREELTKQLTANGIQILTKENPAKVELNADGSKSVTFESGKKMDFDLVMMAIGRSPRTKDLQLQNAGVMIKNGGVQVDEYSRTNVSNIYAIGDVTNRVMLTPVAINEAAALVDTVFGTNPRKTDHTRVASAVFSIPPIGTCGLIEEVASKRYEVVAVYLSSFTPLMHNISGSKYKTFVAKIITNHSDGTVLGVHLLGDNAPEIIQGVGICLKLNAKISDFYNTIGVHPTSAEELCSMRTPSYYYVKGEKMEKPSEASL"}},
  "test_in_all_cases": "Vmax is the maximum velocity of the TcTR (Trypanosoma cruzi trypanothione reductase) catalyzed NADPH oxidation.",
  "key": {"[1]": {"substrate": "CC1=C(CCC(=O)NCCCCNCCCNC(=O)CCC2=C(C)C(=O)c3ccccc3C2=O)C(=O)c2ccccc2C1=O"}, "[2]": {"substrate": "CC1=C(CCC(=O)NCCCN2CCN(CCCNC(=O)CCC3=C(C)C(=O)c4ccccc4C3=O)CC2)C(=O)c2ccccc2C1=O"}, "[3]": {"substrate": "CC1=C(CCC(=O)NCCCNCCCNC(=O)CCC2=C(C)C(=O)c3cccc(O)c3C2=O)C(=O)c2c(O)cccc2C1=O"}, "[4]": {"substrate": "CC1=C(CCC(=O)NCCCNCCCNC(=O)CCC2=C(C)C(=O)c3ccccc3C2=O)C(=O)c2ccccc2C1=O"}, "[5]": {"substrate": "CC1=C(CCCC(=O)NCCCCNCCCNC(=O)CCCC2=C(C)C(=O)c3cccc(O)c3C2=O)C(=O)c2c(O)cccc2C1=O"}, "[6]": {"substrate": "CC1=C(CCCC(=O)NCCCCNCCCNC(=O)CCCC2=C(C)C(=O)c3ccccc3C2=O)C(=O)c2ccccc2C1=O"}, "[7]": {"substrate": "CC1=C(CCCC(=O)NCCCN2CCN(CCCNC(=O)CCCC3=C(C)C(=O)c4cccc(O)c4C3=O)CC2)C(=O)c2c(O)cccc2C1=O"}, "[8]": {"substrate": "CC1=C(CCCC(=O)NCCCNCCCNC(=O)CCCC2=C(C)C(=O)c3cccc(O)c3C2=O)C(=O)c2c(O)cccc2C1=O"}, "[9]": {"substrate": "CC1=C(CCCC(=O)NCCCNCCCNC(=O)CCCC2=C(C)C(=O)c3ccccc3C2=O)C(=O)c2ccccc2C1=O"}, "[10]": {"substrate": "CC1=C(CCCCC(=O)NCCCCNCCCNC(=O)CCCCC2=C(C)C(=O)c3cccc(O)c3C2=O)C(=O)c2c(O)cccc2C1=O"}, "[11]": {"substrate": "CC1=C(CCCCC(=O)NCCCCNCCCNC(=O)CCCCC2=C(C)C(=O)c3ccccc3C2=O)C(=O)c2ccccc2C1=O"}, "[12]": {"substrate": "CC1=C(CCCCC(=O)NCCCN2CCN(CCCNC(=O)CCCCC3=C(C)C(=O)c4ccccc4C3=O)CC2)C(=O)c2ccccc2C1=O"}, "[13]": {"substrate": "CC1=C(CCCCC(=O)NCCCNCCCNC(=O)CCCCC2=C(C)C(=O)c3cccc(O)c3C2=O)C(=O)c2c(O)cccc2C1=O"}, "[14]": {"substrate": "CC1=C(CCCCC(=O)NCCCNCCCNC(=O)CCCCC2=C(C)C(=O)c3ccccc3C2=O)C(=O)c2ccccc2C1=O"}, "[15]": {"substrate": "CC1=C(CCCCCC(=O)NCCCCNCCCNC(=O)CCCCCC2=C(C)C(=O)c3cccc(O)c3C2=O)C(=O)c2c(O)cccc2C1=O"}, "[16]": {"substrate": "CC1=C(CCCCCC(=O)NCCCCNCCCNC(=O)CCCCCC2=C(C)C(=O)c3ccccc3C2=O)C(=O)c2ccccc2C1=O"}, "[17]": {"substrate": "CC1=C(CCCCCC(=O)NCCCN2CCN(CCCNC(=O)CCCCCC3=C(C)C(=O)c4cccc(O)c4C3=O)CC2)C(=O)c2c(O)cccc2C1=O"}, "[18]": {"substrate": "CC1=C(CCCCCC(=O)NCCCNCCCNC(=O)CCCCCC2=C(C)C(=O)c3cccc(O)c3C2=O)C(=O)c2c(O)cccc2C1=O"}, "[19]": {"substrate": "CC1=CC(=O)c2c(O)cccc2C1=O"}, "[20]": {"substrate": "CC1=CC(=O)c2ccccc2C1=O"}},
  "data": [
    {"protein": "B1", "values": [
      {"measurement": "Vmax", "setting": "[1]", "value": 1.83, "unit": "µM/min/mg"},
      {"measurement": "Vmax", "setting": "[2]", "value": 0.74, "unit": "µM/min/mg"},
      {"measurement": "Vmax", "setting": "[3]", "value": 12.4, "unit": "µM/min/mg"},
      {"measurement": "Vmax", "setting": "[4]", "value": 1.3, "unit": "µmol/min/mg"},
      {"measurement": "Vmax", "setting": "[5]", "value": 4, "unit": "µM/min/mg"},
      {"measurement": "Vmax", "setting": "[6]", "value": 2.04, "unit": "µM/min/mg"},
      {"measurement": "Vmax", "setting": "[7]", "value": 2.16, "unit": "µM/min/mg"},
      {"measurement": "Vmax", "setting": "[8]", "value": 4.29, "unit": "µM/min/mg"},
      {"measurement": "Vmax", "setting": "[9]", "value": 0.45, "unit": "µM/min/mg"},
      {"measurement": "Vmax", "setting": "[10]", "value": 3.11, "unit": "µM/min/mg"},
      {"measurement": "Vmax", "setting": "[11]", "value": 1.11, "unit": "µM/min/mg"},
      {"measurement": "Vmax", "setting": "[12]", "value": 1.61, "unit": "µM/min/mg"},
      {"measurement": "Vmax", "setting": "[13]", "value": 3.83, "unit": "µM/min/mg"},
      {"measurement": "Vmax", "setting": "[14]", "value": 0.34, "unit": "µM/min/mg"},
      {"measurement": "Vmax", "setting": "[15]", "value": 5.91, "unit": "µM/min/mg"},
      {"measurement": "Vmax", "setting": "[16]", "value": 1.2, "unit": "µM/min/mg"},
      {"measurement": "Vmax", "setting": "[17]", "value": 1.61, "unit": "µM/min/mg"},
      {"measurement": "Vmax", "setting": "[18]", "value": 4.87, "unit": "µM/min/mg"},
      {"measurement": "Vmax", "setting": "[19]", "value": 0.31, "unit": "µM/min/mg"},
      {"measurement": "Vmax", "setting": "[20]", "value": 0.26, "unit": "µM/min/mg"}
    ]}
  ]
}
